What was measured:
(GR)10 [1] = test: (GR)10 digestion with immobilized proteases (NHS-activated agarose resin) in PBS; assay type: biochemical; details: normalized
Procedure: (§1) Protease solutions were prepared at 2 mg/mL in sterile PBS with calcium, magnesium and 200 μL ([…]) were applied to 100 μL of pre-washed NHS-activated agarose resin in 0.8 mL centrifuge columns. Reactions were left 1.5 hour at room temperature with end-to-end mixing, after which resins were washed with 12 resin volumes of PBS. Unreacted sites were blocked with 500 μL of 1M ethanolamine for 15 minutes at room temperature and resins were further washed with 24 resin volumes. Resins were stored at 4 degrees in 500 μL of PBS containing 0.05% sodium azide as preservative.
110 μL of 50 μM (GR)10 dipeptide repeats prepared in PBS were added to each immobilized protease and incubated 5 minutes at room temperature with end-to-end mixing. Columns were spun down 1 minute at 1,000 Xg to recover digested GR dipeptides. Columns were washed with 110 μL of PBS to increase (GR)10 recovery. This procedure was repeated with 60 minutes digestion time. 100 μL of each samples were transferred to a new tube and 5 μL of 10% TFA followed by 300 μL of Dilution Solution were added. The reaction mixtures were analyzed by LC/MS to determine the concentration of GR repeats of different lengths.

(GR)10 [2] = test: (GR)10 digestion with immobilized proteases in human cerebrospinal fluid (CSF); assay type: biochemical; details: immobilized enzyme
Procedure: as §1
200 μM of (GR)10 were diluted in human cerebrospinal fluid (CSF) and 400 μL were applied to each immobilized proteases. The reaction was incubated 5 minutes at room temperature with end-to-end mixing. Columns were spun down 1 minute at 1,000 Xg to recover digested GR dipeptides. Columns were washed with 12 resin volumes of PBS. The procedure was repeated with 60 minutes digestion time. 100 μL of each samples were transferred to a clean tube, flash-frozen and subsequently used for LC/MS quantification of GR repeats of different lengths. The remaining 300 μL of each samples were flash-frozen and used to assess neuron toxicity.
(GR)10 was digested with exemplary immobilized enzymes as described above in the subsection titled “(GR)10 digestion with immobilized proteases in CSF” of Example 3. Clostripain experiments were conducted with and without DTT activation (no DTT during digestion). The results obtained after 5 and 60 minutes of reaction time are presented in Table 25 and shown in FIG. 5 (commercial and in-house immobilized trypsin), FIG. 6 (immobilized elastase, FIG. 7A (immobilized clostripain without DTT) and FIG. 7 (immobilized clostripain with 2.5 mM DTT).

[3] = resin wash from 60 min reaction

B1: Trypsin: protease cleaving at the carboxyl side of lysine or arginine; in Table 21 also immobilized in-house on NHS-activated agarose resin (protein, UniProt P00760 24-246, looked up)
Serine protease 1: IVGGYTCGANTVPYQVSLNSGYHFCGGSLINSQWVVSAAHCYKSGIQVRLGEDNINVVEGNEQFISASKSIVHPSYNSNTLNNDIMLIKLKSAASLNSRVASISLPTSCASAGTQCLISGWGNTKSSGTSYPDVLKCLKAPILSDSSCKSAYPGQITSNMFCAGYLEGGKDSCQGDSGGPVVCSGKLQGIVSWGSGCAQKNKPGVYTKVCNYVSWIKQTIASN
(GR)1 ((GR)10 [1]; Immobilized - 5 min reaction): 308.8 µM
(GR)2 ((GR)10 [1]; Immobilized - 5 min reaction): 0.0 µM
(GR)3 ((GR)10 [1]; Immobilized - 5 min reaction): 0.0 µM
(GR)4 ((GR)10 [1]; Immobilized - 5 min reaction): 0.0 µM
(GR)5 ((GR)10 [1]; Immobilized - 5 min reaction): 0.0 µM
(GR)6 ((GR)10 [1]; Immobilized - 5 min reaction): 0.0 µM
(GR)8 ((GR)10 [1]; Immobilized - 5 min reaction): 0.0 µM
(GR)10 ((GR)10 [1]; Immobilized - 5 min reaction): 0.0 µM
(GR)1 ((GR)10 [1]; immobilized - 60 min reaction): 321.8 µM
(GR)2 ((GR)10 [1]; immobilized - 60 min reaction): 0.0 µM
(GR)3 ((GR)10 [1]; immobilized - 60 min reaction): 0.0 µM
(GR)4 ((GR)10 [1]; immobilized - 60 min reaction): 0.0 µM
(GR)5 ((GR)10 [1]; immobilized - 60 min reaction): 0.0 µM
(GR)6 ((GR)10 [1]; immobilized - 60 min reaction): 0.0 µM
(GR)8 ((GR)10 [1]; immobilized - 60 min reaction): 0.0 µM
(GR)10 ((GR)10 [1]; immobilized - 60 min reaction): 0.0 µM
(GR)1 ((GR)10 [1]; resin wash from 5 min reaction): 140.2 µM
(GR)2 ((GR)10 [1]; resin wash from 5 min reaction): 0.0 µM
(GR)3 ((GR)10 [1]; resin wash from 5 min reaction): 0.0 µM
(GR)4 ((GR)10 [1]; resin wash from 5 min reaction): 0.0 µM
(GR)5 ((GR)10 [1]; resin wash from 5 min reaction): 0.0 µM
(GR)6 ((GR)10 [1]; resin wash from 5 min reaction): 0.0 µM
(GR)8 ((GR)10 [1]; resin wash from 5 min reaction): 0.0 µM
(GR)10 ((GR)10 [1]; resin wash from 5 min reaction): 6.6 µM
(GR)1 ((GR)10 [1]; [3]): 144.6 µM
(GR)2 ((GR)10 [1]; [3]): 0.0 µM
(GR)3 ((GR)10 [1]; [3]): 0.0 µM
(GR)4 ((GR)10 [1]; [3]): 0.0 µM
(GR)5 ((GR)10 [1]; [3]): 0.0 µM
(GR)6 ((GR)10 [1]; [3]): 0.0 µM
(GR)8 ((GR)10 [1]; [3]): 0.0 µM
(GR)10 ((GR)10 [1]; [3]): 0.0 µM
(GR)1 (normalized uM) ((GR)10 [2]; 5 min reaction): 1153.4 µM
(GR)2 (normalized uM) ((GR)10 [2]; 5 min reaction): 9.0 µM
(GR)3 (normalized uM) ((GR)10 [2]; 5 min reaction): 0.0 µM
(GR)4 (normalized uM) ((GR)10 [2]; 5 min reaction): 0.0 µM
(GR)5 (normalized uM) ((GR)10 [2]; 5 min reaction): 0.0 µM
(GR)6 (normalized uM) ((GR)10 [2]; 5 min reaction): 0.0 µM
(GR)8 (normalized uM) ((GR)10 [2]; 5 min reaction): 0.0 µM
(GR)10 (normalized uM) ((GR)10 [2]; 5 min reaction): 0.0 µM
(GR)1 (normalized uM) ((GR)10 [2]; 60 min reaction): 1182.3 µM
(GR)2 (normalized uM) ((GR)10 [2]; 60 min reaction): 0.0 µM
(GR)3 (normalized uM) ((GR)10 [2]; 60 min reaction): 0.0 µM
(GR)4 (normalized uM) ((GR)10 [2]; 60 min reaction): 0.0 µM
(GR)5 (normalized uM) ((GR)10 [2]; 60 min reaction): 0.0 µM
(GR)6 (normalized uM) ((GR)10 [2]; 60 min reaction): 0.0 µM
(GR)8 (normalized uM) ((GR)10 [2]; 60 min reaction): 0.0 µM
(GR)10 (normalized uM) ((GR)10 [2]; 60 min reaction): 0.0 µM

B2: Clostripain: sulfhydryl protease cleaving at the C-terminus of arginine residues; in Table 23 also immobilized on agarose resin (protein)
chain: NKNQKVTIMYYCDADNNLEGSLLNDIEEMKTGYKDSPNLNLIALVDRSPRYSSDEKVLGEDFSDTRLYKIEHNKANRLDGKNEFPEISTTSKYEANMGDPEVLKKFIDYCKSNYEADKYVLIMANHGGGAREKSNPRLNRAICWDDSNLDKNGEADCLYMGEISDHLTEKQSVDLLAFDACLMGTAEVAYQYRPGNGGFSADTLVASSPVVWGPGFKYDKIFDRIKAGGGTNNEDDLTLGGKEQNFDPATITNEQLGALFVEEQRDSTHANGRYDQHLSFYDLKKAESVKRAIDNLAVNLSNENKKSEIEKLRGSGIHTDLMHYFDEYSEGEWVEYPYFDVYDLCEKINKSENFSSKTKDLASNAMNKLNEMIVYSFGDPSNNFKEGKNGLSIFLPNGDKKYSTYYTSTKIPHWTMQSWYNSIDTVKYGLNPYGKLSWCKDGQDPEINKVGNWFELLDSWFDKTNDVTGGVNHYQW
(GR)1 ((GR)10 [1]; Immobilized - 5 min reaction): 296.5 µM
(GR)2 ((GR)10 [1]; Immobilized - 5 min reaction): 0.0 µM
(GR)3 ((GR)10 [1]; Immobilized - 5 min reaction): 0.0 µM
(GR)4 ((GR)10 [1]; Immobilized - 5 min reaction): 0.0 µM
(GR)5 ((GR)10 [1]; Immobilized - 5 min reaction): 0.0 µM
(GR)6 ((GR)10 [1]; Immobilized - 5 min reaction): 0.0 µM
(GR)8 ((GR)10 [1]; Immobilized - 5 min reaction): 0.0 µM
(GR)10 ((GR)10 [1]; Immobilized - 5 min reaction): 0.0 µM
(GR)1 ((GR)10 [1]; immobilized - 60 min reaction): 305.9 µM
(GR)2 ((GR)10 [1]; immobilized - 60 min reaction): 0.0 µM
(GR)3 ((GR)10 [1]; immobilized - 60 min reaction): 0.0 µM
(GR)4 ((GR)10 [1]; immobilized - 60 min reaction): 0.0 µM
(GR)5 ((GR)10 [1]; immobilized - 60 min reaction): 0.0 µM
(GR)6 ((GR)10 [1]; immobilized - 60 min reaction): 0.0 µM
(GR)8 ((GR)10 [1]; immobilized - 60 min reaction): 0.0 µM
(GR)10 ((GR)10 [1]; immobilized - 60 min reaction): 0.0 µM
(GR)1 ((GR)10 [1]; resin wash from 5 min reaction): 140.2 µM
(GR)2 ((GR)10 [1]; resin wash from 5 min reaction): 0.0 µM
(GR)3 ((GR)10 [1]; resin wash from 5 min reaction): 0.0 µM
(GR)4 ((GR)10 [1]; resin wash from 5 min reaction): 0.0 µM
(GR)5 ((GR)10 [1]; resin wash from 5 min reaction): 0.0 µM
(GR)6 ((GR)10 [1]; resin wash from 5 min reaction): 0.0 µM
(GR)8 ((GR)10 [1]; resin wash from 5 min reaction): 0.0 µM
(GR)10 ((GR)10 [1]; resin wash from 5 min reaction): 0.0 µM
(GR)1 ((GR)10 [1]; [3]): 155.8 µM
(GR)2 ((GR)10 [1]; [3]): 0.0 µM
(GR)3 ((GR)10 [1]; [3]): 0.0 µM
(GR)4 ((GR)10 [1]; [3]): 0.0 µM
(GR)5 ((GR)10 [1]; [3]): 0.0 µM
(GR)6 ((GR)10 [1]; [3]): 0.0 µM
(GR)8 ((GR)10 [1]; [3]): 0.0 µM
(GR)10 ((GR)10 [1]; [3]): 0.0 µM
(GR)1 (normalized uM) ((GR)10 [2]; 5 min reaction): 11.2 µM
(GR)2 (normalized uM) ((GR)10 [2]; 5 min reaction): 10.0 µM
(GR)3 (normalized uM) ((GR)10 [2]; 5 min reaction): 0.0 µM
(GR)4 (normalized uM) ((GR)10 [2]; 5 min reaction): 0.0 µM
(GR)5 (normalized uM) ((GR)10 [2]; 5 min reaction): 8.5 µM
(GR)6 (normalized uM) ((GR)10 [2]; 5 min reaction): 0.0 µM
(GR)8 (normalized uM) ((GR)10 [2]; 5 min reaction): 0.0 µM
(GR)10 (normalized uM) ((GR)10 [2]; 5 min reaction): 395 µM
(GR)1 (normalized uM) ((GR)10 [2]; 60 min reaction): 106.2 µM
(GR)2 (normalized uM) ((GR)10 [2]; 60 min reaction): 99.2 µM
(GR)3 (normalized uM) ((GR)10 [2]; 60 min reaction): 72.3 µM
(GR)4 (normalized uM) ((GR)10 [2]; 60 min reaction): 84.7 µM
(GR)5 (normalized uM) ((GR)10 [2]; 60 min reaction): 85.5 µM
(GR)6 (normalized uM) ((GR)10 [2]; 60 min reaction): 87 µM
(GR)8 (normalized uM) ((GR)10 [2]; 60 min reaction): 58.4 µM
(GR)10 (normalized uM) ((GR)10 [2]; 60 min reaction): 0 µM
